B1: Zinc finger protein ZAT7 (Arabidopsis thaliana (Mouse-ear cress)), Q42453 (parent)
chain: MVARSEEIVIVEEDTTAKCLMLLSRVGECGGGCGGDERVFRCKTCLKEFSSFQALGGHRASHKKLINSDNPSLLGSLSNKKTKTSHPCPICGVKFPMGQALGGHMRRHRNEKVSGSLVTRSFLPETTTVTALKKFSSGKRVACLDLDLDSMESLVNWKLELGRTISWS
partner: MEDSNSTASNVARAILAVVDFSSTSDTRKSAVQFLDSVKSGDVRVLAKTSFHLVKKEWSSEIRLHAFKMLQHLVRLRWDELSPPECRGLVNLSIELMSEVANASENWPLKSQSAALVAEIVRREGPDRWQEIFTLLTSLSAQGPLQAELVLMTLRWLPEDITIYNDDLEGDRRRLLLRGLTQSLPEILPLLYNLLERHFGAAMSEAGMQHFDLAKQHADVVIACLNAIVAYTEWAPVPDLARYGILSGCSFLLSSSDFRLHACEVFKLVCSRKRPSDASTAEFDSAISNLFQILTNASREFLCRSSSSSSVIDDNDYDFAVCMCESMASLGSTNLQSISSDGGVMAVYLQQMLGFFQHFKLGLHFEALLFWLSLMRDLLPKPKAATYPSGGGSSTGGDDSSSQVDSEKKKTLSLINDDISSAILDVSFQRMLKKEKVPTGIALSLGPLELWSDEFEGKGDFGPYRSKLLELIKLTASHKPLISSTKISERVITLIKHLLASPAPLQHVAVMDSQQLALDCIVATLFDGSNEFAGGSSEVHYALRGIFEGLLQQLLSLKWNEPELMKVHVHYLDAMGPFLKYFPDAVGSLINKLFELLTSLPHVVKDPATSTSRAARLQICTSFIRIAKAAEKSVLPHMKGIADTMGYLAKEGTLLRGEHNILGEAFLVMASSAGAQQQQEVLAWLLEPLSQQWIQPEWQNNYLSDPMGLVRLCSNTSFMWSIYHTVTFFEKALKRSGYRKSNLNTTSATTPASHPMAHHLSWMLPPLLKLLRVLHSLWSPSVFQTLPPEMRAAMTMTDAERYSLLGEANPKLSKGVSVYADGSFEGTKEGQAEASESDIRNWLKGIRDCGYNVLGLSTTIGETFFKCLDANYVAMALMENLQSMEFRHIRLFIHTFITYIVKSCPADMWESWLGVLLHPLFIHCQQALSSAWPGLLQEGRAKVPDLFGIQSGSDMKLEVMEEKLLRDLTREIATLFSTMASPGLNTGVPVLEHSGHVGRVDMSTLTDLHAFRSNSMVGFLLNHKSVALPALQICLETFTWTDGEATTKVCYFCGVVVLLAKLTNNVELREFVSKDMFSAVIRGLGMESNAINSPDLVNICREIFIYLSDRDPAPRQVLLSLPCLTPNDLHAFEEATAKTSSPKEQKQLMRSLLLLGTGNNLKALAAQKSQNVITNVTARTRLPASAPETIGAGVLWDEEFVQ

Variants of: B1
Conditions: with hasty_arath HST1, Q0WP44
With MVARSEEIVIVEEDTTAKCLMLLSRVGECGGGCGGDERVFRCKTCLKEFSSFQALGGHRASHKKLINSDNPSLLGSLSNKKTKTSHPCPICGVKFPMGQALGGHMRRHRNEKVSGSLVTRSFLPETTTVTALKKFSSGKRVACLAAALDSMESLVNWKLELGRTISWS the “effect of a mutation on the interaction” value was “disrupting interaction”.
